Source: patent publication US20250122242A1, “SELECTION SYSTEMS, PEPTIDES DETERMINED THEREWITH, AND METHODS OF USING SAME” (Wisconsin Alumni Research Foundation, priority 2023, published 2025)

Assays:
[1] = target: Aβ42-T7n (UniProt P00573+P05067); details: for Fold enrichment in negative vs. positive selection: percent reads negative vs. positive selection; for Percent total reads (negative selection) / Rank (negative selection): subsequent negative selection against Aβ42, high-throughput sequencing
From the text: To create a negative selection, we placed gIII-neg, a dominant-negative form of gIII,^44 under PT7 in our selection circuit. Inhibition of a non-target APP (ex. Aβ42) triggers pIII-neg expression and poisons phage proliferation. A second plasmid produces small amounts of pIII from the phage shock promoter (FIG. 16A). All SPs infecting cells encoding this negative selection receive sufficient pIII to propagate. However, SP that carry a promiscuous or false positive cyclic peptide will also produce pIII-neg and generate non-infectious progeny (FIGS. 16B and 16C). We subjected the hIAPP round 5 phage population to four rounds of negative selection, diluting the phage by 100-fold each round (FIG. 5B).
Single colonies of host cells transformed with the appropriate selection plasmids were used to make overnight cultures in 2×YT with maintenance antibiotics. The overnight culture was diluted (1:100) into 4-5 mL DRM with maintenance antibiotics and incubated at 37° C. with shaking until the OD600 of the culture reached ˜0.5, upon which the expanded phage library was added at a titer of 1×10^6 pfu/mL. The culture was incubated at 37° C. with shaking overnight (13-18 h). The next day, the culture was centrifuged at 8,000 rcf for 2 min to obtain the supernatant containing phage. The collected phage was diluted into fresh host cell cultures (10 to 1,000-fold) for the next round of selection, while the rest was stored at 4° C. for downstream analysis. This process was repeated until a significant increase in phage propagation was observed compared with the parent library. Both positive and negative selection rounds were performed using this procedure.
Sample preparation. Phage stocks collected from the final rounds of library selection were first amplified using LY0145 and LY0146. The PCR product was purified, and adapters added using LY0147 and LY0148. The resulting PCR product was purified and barcoded through a final PCR using index primers to add unique indices for shared Illumina NovaSeq sequencing. The final PCR product was purified, and the concentration measured by Nanodrop. Further sample quality control was performed by the University of Wisconsin-Madison Biotechnology Center (UWBC).
High-throughput sequencing and data analysis. High-throughput sequencing was performed by UWBC using a shared sequencing service on the NovaSeq 6000 platform. Sequencing reads were demultiplexed by UWBC and analyzed using custom-written Python scripts.

[2] = target: T1, hIAPP (Homo sapiens, UniProt P10997); experiment: ThT fluorescence assay of in vitro hIAPP aggregation; assay type: biochemical; details: for effect on aggregation lag time (tlag) / inhibition of hIAPP aggregation (ThT fluorescence): 10 μM hIAPP, PBS pH 6.9, 32° C.; for effect on aggregation lag time (tlag): ThT; for activity relative to MCIP-2a: at higher peptide:hIAPP stoichiometries; for inhibition of hIAPP aggregation (ThT fluorescence): chemically synthesized peptide, quiescent
T1 construct: A 1 mg portion of amylin trifluoroacetate salt (Bachem) was purchased as lyophilized solid in a vial; purchased Bachem
T1 sequence (P10997 34-70 limits assumed): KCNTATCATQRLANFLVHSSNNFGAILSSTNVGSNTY
Description: Preparation of ThT stock solution. To prepare a stock solution of ThT (2-3 mM), 2-4 mg of ThT was added to 3 mL PBS (pH 6.9) in a 15 mL conical tube. The solution was sonicated for 5 min and the supernatant was filtered through a 0.22 μm syringe filter into a 1.5 mL Eppendorf tube. This was the ThT stock solution to be used in following experiments. 2 mL of a 1:200 diluted ThT solution was prepared by adding 10 μL ThT stock solution into 1990 μL PBS. The absorbance of the diluted ThT solution measured at 412 nm was used to calculate the ThT stock concentration using an extinction coefficient (c) of 31600 M^−1 cm^−1.
Preparation of hIAPP stocks. A 1 mg portion of amylin trifluoroacetate salt (Bachem) was purchased as lyophilized solid in a vial. The solid was dissolved in pre-chilled 2562 μL 35 mM sodium acetate (pH 5.3) to a stock concentration of 100 μM on ice. Aliquots of hIAPP were prepared by transferring 200 μL of the 100 μM hIAPP stock solution to low-protein-binding Eppendorf tubes on ice. The aliquots were then immediately snap frozen using liquid N2, lyophilized for 24 h, and stored at −80° C. until use.
Preparation of samples for ThT assays. Using cyclic peptide stock solution (100 μM) and PBS, 400 μL aqueous solution of cyclic peptide was prepared in a low-protein-binding Eppendorf tube to achieve the desired cyclic peptide:hIAPP molar ratio (80 μM for 4:1, 40 μM for 2:1, 20 μM for 1:1, 10 μM for 0.5:1, 0 μM for 0:1). 30 μL of the solution was then loaded to wells on a black clear-bottom low-binding 96-well plate (Corning 3881) to make a triplicate for each condition. This plate loaded with aqueous solutions of cyclic peptides was then ready for adding hIAPP.
Preparation and addition of hIAPP for ThT assays. Using ThT stock solution and PBS, 1 mL ThT solution (10 μM) was prepared in a low-protein-binding Eppendorf tube and chilled on ice. 0.5 mL of the pre-chilled ThT solution was added to one aliquot of lyophilized hIAPP, which was equilibrated to room temperature before opening the tube. Pipetting up and down four times was performed to facilitate complete dissolving of hIAPP. The 0.5 mL hIAPP-containing solution was immediately transferred to the remaining 0.5 mL ThT solution on ice. Pipetting up and down four times was performed to facilitate complete mixing. The resulting 1 mL hIAPP solution, where [hIAPP]=20 μM, was immediately transferred to a 25 mL liquid reservoir. Using a multi-channel pipette, 30 μL of the hIAPP solution was quickly loaded into wells containing aqueous solutions of cyclic peptides on the 96-well plate. Final [hIAPP]=10 μM, [ThT]=5 μM.
ThT assay conditions. The plate was then quickly covered and incubated in a Tecan M Plex microplate reader under quiescent condition at 32° C. for at least 12 h. ThT fluorescence at 480 nm was measured every 5 min through the bottom of the plate using an excitation wavelength of 440 nm.
Fitting of aggregation kinetics. ThT aggregation kinetics data was fit to a sigmoidal function using GraphPad Prism and the aggregation lag time (tlag) and the apparent fibril elongation rate (kapp) calculated as described.^55

[3] = target: T1, hIAPP; experiment: TEM analysis of hIAPP fibril formation; assay type: biochemical; details: 10 μM hIAPP, 40 μM cyclic peptide; for hIAPP fibril formation / aggregation onset by TEM: 2 h; for morphology of hIAPP fibrils by TEM: longer incubation (14 h)
Description: Transmission electron microscopy (TEM) was performed at the University of Wisconsin School of Medicine and Public Health Electron Microscopy facility. hIAPP and cyclic peptide were dissolved in 25 mM sodium phosphate buffer (pH 6.8 with 0.4% DMSO) to achieve a molar ratio of 1:4 at concentrations of hIAPP=10 μM and cyclic peptide=40 μM. The sample was incubated quiescently at 32° C. before TEM analysis. 2 μL of the sample was placed onto Formvar-coated copper grids and the excess liquid was blotted away. 2 μL of diluted Nano-W solution was then added to stain the grids and the excess liquid was blotted away. The TEM analysis was performed on Philips CM120 at 80 kV and digital images were obtained with an AMT BioSprint12 camera.

Sequence of Aβ42-T7n (P05067+P00573 fused): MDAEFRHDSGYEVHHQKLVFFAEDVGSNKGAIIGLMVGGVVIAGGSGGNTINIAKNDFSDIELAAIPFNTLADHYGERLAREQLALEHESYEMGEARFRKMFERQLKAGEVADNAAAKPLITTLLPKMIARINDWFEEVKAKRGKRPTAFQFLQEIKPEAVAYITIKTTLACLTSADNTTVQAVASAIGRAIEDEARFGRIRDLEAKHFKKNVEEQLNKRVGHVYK

Substance	Fold enrichment in negative vs. positive selection [1]	Percent total reads (negative selection) [1] [%]	Rank (negative selection) [1]	effect on aggregation lag time (tlag) [2]	activity relative to MCIP-2a [2]	inhibition of hIAPP aggregation (ThT fluorescence) [2]	hIAPP fibril formation / aggregation onset by TEM [3]	morphology of hIAPP fibrils by TEM [3]
CDLGVFR (cyclised; Circular) [cyclo-CDLGVFR]	410.79	31.22	1	extended tlag	less active than MCIP-2a	inhibited hNAPP fibrillation	delay hNAPP aggregation	do not change the overall appearance
CHVVGVI (cyclised; Circular) [cyclo-CHVVGVI]	0.003	0.29	20	delaying the aggregation lag time (tlag) in a dose-dependent fashion	less active than MCIP-2a	inhibited hIAPP aggregation	no fibrils are observed	No gross differences in morphology
CRCVFSG (cyclised; Circular) [cyclo-CRCVFSG]	701.46	24.55	2	extended tlag	less active than MCIP-2a	inhibited hNAPP fibrillation	delay hNAPP aggregation	do not change the overall appearance
